According to patent publication US20250382376A1 (FUDAN UNIVERSITY, published 2025):
Residue numbers refer to the chain shown, from its start. Values belong to the binder of their own block, whether it stands above or below them.

Experiments:
[1] = target: T1, CD73 on the surface of human cells (human, UniProt P21589 27-549); experiment: cell-based or functional assay
T1 sequence (looked up): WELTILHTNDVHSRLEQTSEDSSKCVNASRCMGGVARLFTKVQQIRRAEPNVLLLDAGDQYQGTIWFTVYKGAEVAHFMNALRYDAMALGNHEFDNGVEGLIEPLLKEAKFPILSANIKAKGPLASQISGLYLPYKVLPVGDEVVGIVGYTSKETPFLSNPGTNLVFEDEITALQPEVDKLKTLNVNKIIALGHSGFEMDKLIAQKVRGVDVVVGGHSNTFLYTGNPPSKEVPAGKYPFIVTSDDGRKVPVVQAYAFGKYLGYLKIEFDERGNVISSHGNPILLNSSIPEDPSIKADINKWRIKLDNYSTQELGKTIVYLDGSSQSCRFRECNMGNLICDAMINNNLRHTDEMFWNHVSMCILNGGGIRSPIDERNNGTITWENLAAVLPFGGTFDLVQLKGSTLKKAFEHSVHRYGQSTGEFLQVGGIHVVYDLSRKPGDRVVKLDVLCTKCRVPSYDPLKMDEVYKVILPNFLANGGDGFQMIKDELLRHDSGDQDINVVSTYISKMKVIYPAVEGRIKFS

[2] = target: T2, extracellular domain of human CD73 protein, C-terminus polyhistidine-tagged (human, UniProt P21589 27-547); experiment: ELISA, coated human CD73-ECD, method of Example 3
T2 construct: also the immunogen; also called CD73-ECD; human CD73-ECD
T2 sequence: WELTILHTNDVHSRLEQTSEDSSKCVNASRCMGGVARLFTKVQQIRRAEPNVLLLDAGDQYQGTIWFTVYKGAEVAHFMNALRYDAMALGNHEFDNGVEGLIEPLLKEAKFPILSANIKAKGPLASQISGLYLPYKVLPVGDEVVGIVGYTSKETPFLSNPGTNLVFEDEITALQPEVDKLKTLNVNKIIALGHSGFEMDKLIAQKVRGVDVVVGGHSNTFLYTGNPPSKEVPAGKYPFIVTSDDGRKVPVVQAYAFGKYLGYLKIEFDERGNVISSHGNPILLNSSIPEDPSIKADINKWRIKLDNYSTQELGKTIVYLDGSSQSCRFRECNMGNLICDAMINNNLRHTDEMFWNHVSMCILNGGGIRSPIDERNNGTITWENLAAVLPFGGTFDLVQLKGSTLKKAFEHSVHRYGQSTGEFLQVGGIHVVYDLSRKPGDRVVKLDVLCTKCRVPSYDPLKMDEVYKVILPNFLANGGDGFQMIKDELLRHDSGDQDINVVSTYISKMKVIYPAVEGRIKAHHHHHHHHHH
Experimental: (§1) The CD73 protein extracellular region (CD73-ECD) was diluted to 1 μg/mL using the coating solution, and an ELISA plate was coated at 100 μL/well at 4° C. overnight. Excess antigens were washed away, and the plate was blocked with 1% BSA at room temperature for 2 hours. Then, 5-fold gradient dilutions of each monoclonal antibody were added at 100 μL/well and incubated at room temperature for 1 hour. Unbound antibodies were washed away, and an appropriate concentration of Staphylococcal protein A labeled with horseradish peroxidase was added at 100 μL/well and incubated at room temperature for 0.5 hours. Unbound secondary antibodies were washed away, and TMB color development solution was added to react for about 15 minutes. 1M HCL was added at 50 µL/well to terminate the color development reaction, and then the absorbance was measured at 450 nm and the data was analyzed.
(§2) The affinity of the humanized antibody to human and cynomolgus CD73-ECD was detected according to the ELISA determination method of Example 3.

[3] = target: T3, cynomolgus monkey CD73-ECD (cynomolgus monkey, UniProt A0A2K5V5U7 27-549); experiment: ELISA, coated cynomolgus CD73-ECD, method of Example 3
T3 construct: also called cynomolgus CD73-ECD
T3 sequence: T1 sequence (looked up) with M199T, T350A, V466I
Experimental: as §1, §2

[4] = target: T1, CD73 on the surface of human cells; experiment: flow cytometry on SW1573 cells
Experimental: (§3) 100 μL of the test antibodies diluted from 10 μg/mL to 0.016 μg/mL in a 5-fold gradient were used as the primary antibodies, and were mixed with 1×10⁵ tumor cells suspended in 100 μL RPMI-1640 serum-free medium to make a final concentration of 5 μg/mL diluted to 0.008 μg/mL, and then incubated at 4° C. for 1 h. The cells were washed twice with PBS to remove unbound primary antibodies, and then the target cells were incubated with 200 μLPE-labeled secondary antibody at 2 μg/mL at 4° C. for 30 min. The cells were washed twice with PBS to remove unbound secondary antibodies, and finally the cells were resuspended in 200 μL PBS. The binding affinity of the test antibodies to CD73 on the surface of the corresponding cells was measured by flow cytometry.

[5] = target: T2, extracellular domain of human CD73 …; experiment: ELISA, coated CD73-ECD, method of Example 3
Experimental: as §1
(§4) Based on the above mutants, 5-E11ASCS was designed and prepared, and the CD73 antigen ELISA binding affinity test was performed according to the method of Example 3.

[6] = target: T2, extracellular domain of human CD73 …; experiment: ELISA on coated human CD73-ECD (the text rounds this value to 0.018 µg/mL)
Experimental: as §1, §4

[7] = target: T4, human recombinant CD73 enzyme (CD73 extracellular region) (human, UniProt P21589 27-549); experiment: cell-based or functional assay
T4 sequence (looked up): T1 sequence (looked up)

[8] = target: T1, CD73 on the surface of human cells; experiment: flow cytometry on NCI-H1299 cells
[9] = target: T1, CD73 on the surface of human cells; experiment: Flow cytometry on NCI-H1299 cells
Experimental: as §3
The binding affinity of the humanized antibodies to NCI-H1299 cells was detected according to the method for determining the binding affinity of CD73 on the surface of tumor cells in Example 5.

[10] = target: T2, extracellular domain of human CD73 …; experiment: SPR as the filing names it (method of Example 2, ForteBio OCTET R2)
Experimental: Surface plasmon resonance (SPR) assay: Protein A sensor was used to immobilize the antibodies, with an immobilization height of about 1.5 nM. […] Affinity detection: equilibrium for 60 s, binding for 180 s, dissociation for 180 s, at a detection temperature of 25° C. Kinetic characterization analysis was performed using the ForteBio OCTET R2 system.
The affinity of the humanized antibody to the antigen was detected by the surface plasmon resonance (SPR) assay method in Example 2.

[11] = target: T2, extracellular domain of human CD73 …; experiment: ForteBio Octet (the filing calls it SPR), by the method of Example 2 according to the text; sheet prints 'Loading Sample ID: FDYKSD-02-His'; traces labelled 50, 25, 12.5, 6.25, 3.13

B2: 5-E11 derived antibody 5-E11ASCS (VHH)
VHH: ALQLVESGGGLVQPGGSLRLSCEVSGFTLDYYNIGWFRQAPGKEREGVSSSSASGGSTYYADSVKGRFTISRDNAKNTVYLQMNSLKPEDTGVYYCAAYRGWHPSLDARVYDYWGQGTEVTVSS
EC50 [4]: 0.015 µg/mL
EC50 [5]: 0.018 µg/mL
EC50 [6]: 0.0179 µg/mL

B3: humanized antibody 3D7-HM8-FC1 (Fc fusion)
heavy: QRQLVESGGGLVQPGGSLRLSCAASGFLLDYYVIGWFRQAPGKEREGVSCISGSDRSTYYADSVKGRFTISRDNSKNTVYLQMSSLRAEDTAVYYCAADPSPVTVQAMCLPRFPVPYWGQGTLVTVSSEPKSSDKTHTCPPCPAPEFEGGPSVFLFPPKPKDTLMISRTPEVTCVVVDVSHEDPEVKFNWYVDGVEVHNAKTKPREEQYNSTYRVVSVLTVLHQDWLNGKEYKCKVSNKALPASIEKTISKAKGQPREPQVYTLPPSRDELTKNQVSLTCLVKGFYPSDIAVEWESNGQPENNYKTTPPVLDSDGSFFLYSKLTVDKSRWQQGNVFSCSVMHEALHNHYTQKSLSLSPGK
IC50, inhibition of the catalytic function of recombinant human CD73 enzyme [7]: 0.0555 µg/mL
EC50 [8]: 0.043 µg/mL
Max MFI [9]: 106000 MFI
Kd [10]: 1.17 nM
koff [11]: 0.000913 s⁻¹
kon [11]: 779000 M⁻¹ s⁻¹

B4: humanized antibody 3D7-HM7-FC1 (Fc fusion)
heavy: B3 heavy with S84G
IC50, inhibition of the catalytic function of recombinant human CD73 enzyme [7]: 0.0456 µg/mL
EC50 [8]: 0.02 µg/mL
Max MFI [9]: 103000 MFI
Kd [10]: 1.3 nM
koff [11]: 0.00091 s⁻¹
kon [11]: 702000 M⁻¹ s⁻¹

Continued, values first:

IC50, inhibition of the catalytic function of CD73 enzyme on MDA-MB-231 cells [1]: 0.126 µg/mL
EC50 [2]: 0.00209 µg/mL
EC50 [3]: 0.00206 µg/mL
B1: humanized antibody 3D7-HM9-FCWT (Fc fusion)
VHH: QRQLVESGGGLVQPGGSLRLSCAASGFLLDYYVIGWFRQAPGKEREGVSCISGSDRSTYYADSVKGRFTISRDNAKNTVYLQMSSLRAEDTAVYYCAADPSPVTVQAMCLPRFPVPYWGKGTLVTVSS
notes: 3D7-HM9 VH on an Fc called FCWT; not shown: FCWT Fc segment

EC50, reversal of the AMP inhibition of human T lymphocyte proliferation [1]: 0.024 µg/mL
IC50, inhibition of the catalytic function of CD73 enzyme on MDA-MB-231 cells [1]: 0.098 µg/mL
IC50, inhibition of the catalytic function of recombinant human CD73 enzyme [7]: 0.0187 µg/mL
EC50 [8]: 0.02 µg/mL
Max MFI [9]: 105000 MFI
EC50 [2]: 0.0025 µg/mL
EC50 [3]: 0.00188 µg/mL
Kd [10]: 0.638 nM
koff [11]: 0.00086 s⁻¹
kon [11]: 1.35e+06 M⁻¹ s⁻¹
B5: humanized antibody 3D7-HM9-FC1 (Fc fusion)
heavy: B3 heavy with S75A, Q120K
